Patent US20250011363A1, “OPTIMIZED SHORTENED PEPTIDE THAT BINDS TO ACETYLCHOLINE RECEPTOR, AND USE THEREOF” (SKINMED CO., LTD., priority 2021, published 2025)

target: acetylcholine receptor; experiment: SPR, AchR immobilised on CM5 chip, peptide 10 uM

Binding affinity (RU)	Binder
15 RU	KFHNRK [6mer-2-685]
13 RU	RPMFRK [6mer-2-688]
21 RU	KTWEKK [6mer-2-686]
23 RU	RFCGRK [6mer-2-673]
28 RU	KCWWRR [6mer-2-695]
15 RU	RPWHKK [6mer-2-700]
20 RU	RMPEKR [6mer-2-654]
20 RU	KIDDRK [6mer-2-672]
26 RU	RHSKKK [6mer-2-721]
30 RU	RCPDKR [6mer-2-729]
25 RU	KHHKKK [6mer-2-726]
29 RU	RAWVKK [6mer-2-708]
29 RU	KIKPRR [6mer-2-719]
22 RU	KDSIRK [6mer-2-694]
29 RU	KYTNRR [6mer-2-692]
33 RU	KTEIRK [6mer-2-683]
25 RU	KAHMKK [6mer-2-725]
29 RU	KIPHRR [6mer-2-712]
29 RU	RMKAKK [6mer-2-661]
22 RU	KIPNKR [6mer-2-659]
20 RU	RYSAKK [6mer-2-679]
20 RU	KIEMKR [6mer-2-653]
33 RU	RNMERR [6mer-2-682]
23 RU	KTWAKR [6mer-2-701]
16 RU	RHKDRK [6mer-2-660]
24 RU	KYTMKK [6mer-2-724]

Binding affinity (RU)	Binder
11 RU	KAHPKK [6mer-2-662]
23 RU	KEDMKR [6mer-2-723]
11 RU	KCCWKK [6mer-2-664]
27 RU	RDWIRR [6mer-2-671]
18 RU	KCAERR [6mer-2-665]
12 RU	KYTFKR [6mer-2-718]
20 RU	KDWHRK [6mer-2-704]
23 RU	RMTMKK [6mer-2-728]
18 RU	KEMIKR [6mer-2-702]
14 RU	KCTAKK [6mer-2-676]
31 RU	RIWPKR [6mer-2-709]
25 RU	KPMDRR [6mer-2-666]
32 RU	RATHRK [6mer-2-715]
23 RU	KNAGKR [6mer-2-699]
16 RU	KNTIRR [6mer-2-693]
24 RU	RDKERR [6mer-2-689]
30 RU	KIDVRK [6mer-2-714]
32 RU	KEWWRR [6mer-2-678]
29 RU	KECGRR [6mer-2-711]
28 RU	RENWKK [6mer-2-677]
26 RU	KKWERK [6mer-2-674]
20 RU	KFTKKK [6mer-2-696]
11 RU	RENFKK [6mer-2-705]
24 RU	RASWRR [6mer-2-713]
15 RU	KCPGKR [6mer-2-717]
31 RU	KIWFRR [6mer-2-655]

Binding affinity (RU)	Binder
14 RU	RNKKKK [6mer-2-710]
26 RU	RNTHKR [6mer-2-730]
11 RU	KADPRR [6mer-2-656]
24 RU	KFAGRR [6mer-2-663]
15 RU	RHKMRK [6mer-2-691]
27 RU	KCEDKK [6mer-2-698]
14 RU	RMKWRK [6mer-2-675]
33 RU	RDTWRR [6mer-2-681]
32 RU	RKHERK [6mer-2-657]
16 RU	KADGRK [6mer-2-687]
13 RU	KFTMRK [6mer-2-690]
11 RU	RDMIKR [6mer-2-727]
25 RU	KHDMRR [6mer-2-667]
15 RU	KNMWRK [6mer-2-669]
18 RU	RTWKKR [6mer-2-716]
13 RU	RFCNKK [6mer-2-668]
21 RU	RTWKRK [6mer-2-707]
15 RU	KNHGKR [6mer-2-680]
23 RU	KFTDRK [6mer-2-706]
29 RU	RATNRK [6mer-2-720]
21 RU	RNEHRR [6mer-2-722]
33 RU	RKWHKR [6mer-2-670]
23 RU	RYWVKK [6mer-2-658]
14 RU	RYTMKK [6mer-2-684]
14 RU	RTMHKR [6mer-2-703]
19 RU	KCAVKK [6mer-2-697]
